Assay results from publication PMC3912051.

Experiments:
[1] = biological target: TRIM28 (endogenous human TRIM28 protein) (human (endogenous in HeLa)) (UniProt Q13263)
[2] = biological target: ZNF10 KRAB-AB KRAB-AB (Homo sapiens) (UniProt P21506); details: cited from earlier work
ZNF10 KRAB-AB KRAB-AB (Homo sapiens), sequence (P21506 14-85): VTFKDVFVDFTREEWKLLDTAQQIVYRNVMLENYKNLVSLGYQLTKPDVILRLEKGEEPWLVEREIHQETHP

TRIM28, sequence (Q13263 2-835): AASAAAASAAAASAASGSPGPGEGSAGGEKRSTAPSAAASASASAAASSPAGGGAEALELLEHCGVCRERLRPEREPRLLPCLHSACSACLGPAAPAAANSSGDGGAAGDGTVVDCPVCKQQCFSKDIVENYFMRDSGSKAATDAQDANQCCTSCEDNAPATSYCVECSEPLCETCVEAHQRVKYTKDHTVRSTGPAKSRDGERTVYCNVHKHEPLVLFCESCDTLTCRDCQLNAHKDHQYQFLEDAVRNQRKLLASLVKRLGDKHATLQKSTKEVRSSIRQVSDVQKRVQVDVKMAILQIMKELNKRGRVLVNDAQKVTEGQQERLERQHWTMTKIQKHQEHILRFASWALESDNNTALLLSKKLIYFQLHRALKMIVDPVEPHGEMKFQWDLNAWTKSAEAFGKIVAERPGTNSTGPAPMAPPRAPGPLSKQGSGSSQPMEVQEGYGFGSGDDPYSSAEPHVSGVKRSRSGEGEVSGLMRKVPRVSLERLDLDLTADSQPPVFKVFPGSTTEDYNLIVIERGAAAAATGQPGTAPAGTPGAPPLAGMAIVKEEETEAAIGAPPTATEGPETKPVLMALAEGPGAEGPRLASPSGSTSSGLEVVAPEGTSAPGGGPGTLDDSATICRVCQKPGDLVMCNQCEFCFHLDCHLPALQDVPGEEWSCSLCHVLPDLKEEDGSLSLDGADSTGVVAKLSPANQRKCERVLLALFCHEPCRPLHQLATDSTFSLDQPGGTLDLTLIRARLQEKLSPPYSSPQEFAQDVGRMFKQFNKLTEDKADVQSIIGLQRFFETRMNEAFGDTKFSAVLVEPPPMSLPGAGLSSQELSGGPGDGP
TRIM28 (endogenous human TRIM28 protein) (human (endogenous in HeLa)), sequence (Q13263 whole entry): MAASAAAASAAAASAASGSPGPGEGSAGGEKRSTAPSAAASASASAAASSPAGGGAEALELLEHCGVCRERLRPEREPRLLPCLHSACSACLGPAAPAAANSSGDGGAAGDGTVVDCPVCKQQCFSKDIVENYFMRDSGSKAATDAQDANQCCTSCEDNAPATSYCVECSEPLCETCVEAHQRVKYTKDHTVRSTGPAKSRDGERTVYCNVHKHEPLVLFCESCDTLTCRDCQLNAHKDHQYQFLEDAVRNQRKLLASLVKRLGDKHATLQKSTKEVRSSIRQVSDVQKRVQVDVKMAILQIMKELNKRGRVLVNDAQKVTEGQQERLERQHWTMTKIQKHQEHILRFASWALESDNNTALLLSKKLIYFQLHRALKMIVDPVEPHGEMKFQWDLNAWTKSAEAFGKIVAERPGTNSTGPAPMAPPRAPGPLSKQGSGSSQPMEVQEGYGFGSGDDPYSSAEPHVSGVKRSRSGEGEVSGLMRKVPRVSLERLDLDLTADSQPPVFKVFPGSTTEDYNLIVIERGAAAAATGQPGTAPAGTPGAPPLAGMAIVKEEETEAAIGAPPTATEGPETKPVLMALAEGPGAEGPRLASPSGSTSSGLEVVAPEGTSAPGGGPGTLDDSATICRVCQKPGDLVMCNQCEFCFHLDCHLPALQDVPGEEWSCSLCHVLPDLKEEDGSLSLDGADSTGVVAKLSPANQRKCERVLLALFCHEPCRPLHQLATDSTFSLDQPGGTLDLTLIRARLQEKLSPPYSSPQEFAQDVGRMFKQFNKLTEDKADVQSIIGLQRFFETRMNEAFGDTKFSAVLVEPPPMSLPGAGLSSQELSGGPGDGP

fold repression of a Gal4-site luciferase reporter by Gal4-XFIN-KRAB-AB in EPC fish cells with co-transfected human TRIM28 (negligible without it) [1]	Substance	Kd [2]
2 fold	GST-XFIN-KRAB-AB (corrected KRAB-AB domain of Xenopus laevis XFIN fused to glutathione S-transferase) (domain or fragment)	–
–	TRIM28 (from UniProt Q13263)	142 nM
